Test results: patent US20230374088A1 (GENERAL HOSPITAL, published 2023)

B1: Gli2-ZF (418-604aa; zinc finger domain of Gli2) (other, human, UniProt P10070 418-604, looked up)
chain: KEDLDRDDCKQEAEVVIYETNCHWEDCTKEYDTQEQLVHHINNEHIHGEKKEFVCRWQACTREQKPFKAQYMLVVHMRRHTGEKPHKCTFEGCSKAYSRLENLKTHLRSHTGEKPYVCEHEGCNKAFSNASDRAKHQNRTHSNEKPYICKIPGCTKRYTDPSSLRKHVKTVHGPDAHVTKKQRNDVH
notes: Expressed with an HRV-cleavable N-terminal 6xHis tag, cleaved 'if needed'; also called Gli-ZF
B3: GST-Kif7-CC (460-600aa) (other)
chain: PDSGIESASVEDQAAQGAGGRKEDEGAQQLLTLQNQVARLEEENRDFLAALEDAMEQYKLQSDRLREQQEEMVELRLRLELVRPGWGGPRLLNGLPPGSFVPRPHTAPLGGAHAHVLGMVPPACLPGDEVGSEQRGEQVTN
notes: held on the BLI sensor through the GST tag; also called Kif7 coiled-coil domain; coiled-coil dimerization domain fragment of Kif7; not shown: N-terminal GST tag (HRV protease cleavable, modified pGEX vector)

Experiments:
[1] = target: T1, Kif7-DM-GFP (1-543aa) (human, UniProt Q2M1P5 1-543); test: cell-based or functional assay
T1 sequence: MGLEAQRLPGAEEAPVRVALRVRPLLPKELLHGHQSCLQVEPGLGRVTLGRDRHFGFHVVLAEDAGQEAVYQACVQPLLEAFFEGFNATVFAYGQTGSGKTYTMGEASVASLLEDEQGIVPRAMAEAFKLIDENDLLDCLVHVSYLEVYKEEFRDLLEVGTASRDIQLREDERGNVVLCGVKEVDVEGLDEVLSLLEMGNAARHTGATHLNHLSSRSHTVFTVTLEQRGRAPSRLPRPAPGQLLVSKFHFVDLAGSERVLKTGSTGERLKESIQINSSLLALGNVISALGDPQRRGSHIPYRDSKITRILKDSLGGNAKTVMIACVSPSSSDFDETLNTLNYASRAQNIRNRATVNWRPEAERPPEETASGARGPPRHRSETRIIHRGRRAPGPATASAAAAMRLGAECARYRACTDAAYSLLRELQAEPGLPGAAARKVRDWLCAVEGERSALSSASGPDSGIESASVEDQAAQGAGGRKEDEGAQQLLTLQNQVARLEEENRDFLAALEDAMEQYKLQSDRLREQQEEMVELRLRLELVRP

[2] = target: T1, Kif7-DM-GFP (1-543aa); test: BLI; HIS-tagged, GFP-tagged kinesin on anti-penta-HIS sensor, Gli2-ZF as analyte, Hill fit
Experimental: (§1) Data represent mean and standard deviation from three independent repeats. The plots of binding response versus Gli2-ZF concentration were fit to a Hill equation to determine equilibrium dissociation constants (Kd).
(§2) BLI experiments were performed in an Octet Red 96 instrument (ForteBio). To quantify Kif7-Gli2 binding, Experiments were performed in an assay buffer containing 40 mM TRIS pH7.3, 40 mM KCl, 40 μM ATP 1 mM MgCl₂, 0.12% tween and 0.5 mM TCEP. In the simplest assay, dimeric GST-Kif7-CC at a concentration of 120 nM is immobilized on an anti-GST biosensor chip. Unbound Kif7 is washed away with buffer, and the chips are then dipped into buffer with a range of Gli2-ZF concentrations from 0-1 μM to allow for association of the two proteins. After 300 seconds, they are then moved back into a well with just buffer to allow dissociation for 400 seconds. The equilibrium response of each sensor from three independent repeats at each Gli2 concentration were normalized and plotted against Gli2 concentration and fitted with a Hill function to obtain a Kₜ. […] The assays were also performed with HIS-tagged Kif7-DM and the Kif7-Kif27 chimeric proteins, requiring the use of an anti-penta-HIS biosensor chip, and referencing sensors to account for non-specific binding of Gli2 to the HIS sensor. A flipped assay, using HIS-tagged Gli2 on the sensor and a range of Kif7 concentrations in buffer, was also conducted.

[3] = target: T2, Kif7M-Kif27CC chimera (human, UniProt Q86VH2 475-570); test: as above
T2 construct: range 475-570; not shown: HIS tag (used for BLI); GFP tag
T2 sequence: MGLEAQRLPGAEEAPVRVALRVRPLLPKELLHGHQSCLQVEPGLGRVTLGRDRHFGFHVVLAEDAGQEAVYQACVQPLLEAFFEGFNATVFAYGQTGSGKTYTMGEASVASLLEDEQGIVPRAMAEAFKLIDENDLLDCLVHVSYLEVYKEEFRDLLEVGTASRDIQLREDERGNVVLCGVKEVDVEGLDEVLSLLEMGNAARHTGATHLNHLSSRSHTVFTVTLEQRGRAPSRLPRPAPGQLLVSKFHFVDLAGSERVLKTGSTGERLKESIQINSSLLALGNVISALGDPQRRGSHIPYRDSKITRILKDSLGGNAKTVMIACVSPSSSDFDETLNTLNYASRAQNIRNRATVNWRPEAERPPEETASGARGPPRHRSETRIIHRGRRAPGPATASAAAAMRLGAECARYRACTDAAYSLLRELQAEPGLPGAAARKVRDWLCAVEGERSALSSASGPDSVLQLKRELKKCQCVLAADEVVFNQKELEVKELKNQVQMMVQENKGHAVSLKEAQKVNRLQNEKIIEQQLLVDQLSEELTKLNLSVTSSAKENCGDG
Experimental: as §1, §2

[4] = target: T3, Kif27M-Kif7CC chimera (human, UniProt Q86VH2 1-475); test: as above
T3 construct: range 1-475; not shown: HIS tag (used for BLI); GFP tag
T3 sequence: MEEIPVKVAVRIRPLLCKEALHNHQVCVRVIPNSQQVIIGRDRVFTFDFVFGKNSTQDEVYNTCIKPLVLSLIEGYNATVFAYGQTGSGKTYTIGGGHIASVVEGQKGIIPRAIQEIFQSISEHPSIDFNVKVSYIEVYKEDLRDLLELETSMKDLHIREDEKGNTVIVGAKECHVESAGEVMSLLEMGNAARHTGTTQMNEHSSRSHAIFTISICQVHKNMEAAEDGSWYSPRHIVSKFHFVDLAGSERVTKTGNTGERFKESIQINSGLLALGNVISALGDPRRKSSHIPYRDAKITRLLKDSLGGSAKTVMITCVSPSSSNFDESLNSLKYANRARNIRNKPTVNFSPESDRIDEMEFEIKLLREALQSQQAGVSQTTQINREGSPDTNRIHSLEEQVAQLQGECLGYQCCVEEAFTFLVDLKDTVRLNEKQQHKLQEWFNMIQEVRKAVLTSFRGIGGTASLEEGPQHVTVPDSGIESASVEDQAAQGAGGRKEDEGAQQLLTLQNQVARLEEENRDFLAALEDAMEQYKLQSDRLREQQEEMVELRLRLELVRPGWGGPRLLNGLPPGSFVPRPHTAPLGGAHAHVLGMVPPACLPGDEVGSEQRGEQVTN
Experimental: as §1, §2

[5] = target: B3; test: BLI, GST-Kif7-CC on the sensor, Gli2-ZF titrated in the presence of 125 nM Gli2 target dsDNA (competitor); not an affinity of the free pair [panel A]
Experimental: as §2

[6] = target: B3; test: BLI with Gli2-ZF truncation, Hill fit
Text: as §1
(§3) Third, we performed a series of site-directed mutagenesis experiments to further confirm the structural model and map the residues of Gli2-ZF and Kif7-CC required for complex formation. We created five Gli2-ZF truncations containing different groups of zinc-fingers (FIG. 3C; FIGS. 10A & 10B). […] This is similar to the Gli-DNA interaction where ZF2 and ZF3 are critical for making contacts with the phosphate backbone of DNA (Pavletich and Pabo, Science, 261, 1701-1707, 1993).
(§4) BLI experiments were performed in an Octet Red 96 instrument (ForteBio). To quantify Kif7-Gli2 binding, Experiments were performed in an assay buffer containing 40 mM TRIS pH7.3, 40 mM KCl, 40 μM ATP 1 mM MgCl₂, 0.12% tween and 0.5 mM TCEP. In the simplest assay, dimeric GST-Kif7-CC at a concentration of 120 nM is immobilized on an anti-GST biosensor chip. Unbound Kif7 is washed away with buffer, and the chips are then dipped into buffer with a range of Gli2-ZF concentrations from 0-1 μM to allow for association of the two proteins. After 300 seconds, they are then moved back into a well with just buffer to allow dissociation for 400 seconds. […]

[7] = target: T4, Gli2-ZF-1-4 (human, UniProt P10070 418-562, limits assumed); test: BLI with Gli2-ZF truncation, Hill fit
T4 construct: domain: zinc-fingers 1-4
Text: as §1, §3, §4

[8] = target: B1; test: BLI; GST-Kif7-CC on anti-GST sensor, Gli2-ZF as analyte, Hill fit of equilibrium response
Text: Data represent mean and standard deviation from three independent repeats. The plots of binding response versus Gli2-ZF concentration were fit to a Hill equation to determine equilibrium dissociation constants (Kd). […] See also FIGS. 8A & 8B.
Single molecule fluorescence intensity and photobleaching analysis of the GFP-tagged proteins indicate that the GST-Kif7-CC is an obligate dimer and Gli2-ZF is a monomer (FIGS. 8C & 8D). […] We also verified that Kif7-CC-GFP and Gli2-ZF-GFP bind with similar affinity as the untagged proteins (FIG. 8E). Due to higher stability and yield of the Kif7-CC compared to the Kif7-SCC protein, we used the Kif7-CC for further biochemical analysis.
BLI experiments were performed in an Octet Red 96 instrument (ForteBio). To quantify Kif7-Gli2 binding, Experiments were performed in an assay buffer containing 40 mM TRIS pH7.3, 40 mM KCl, 40 μM ATP 1 mM MgCl₂, 0.12% tween and 0.5 mM TCEP. In the simplest assay, dimeric GST-Kif7-CC at a concentration of 120 nM is immobilized on an anti-GST biosensor chip. Unbound Kif7 is washed away with buffer, and the chips are then dipped into buffer with a range of Gli2-ZF concentrations from 0-1 μM to allow for association of the two proteins. After 300 seconds, they are then moved back into a well with just buffer to allow dissociation for 400 seconds.

[9] = target: T4, Gli2-ZF-1-4; test: BLI with Gli2-ZF truncation, Hill fit (legend of FIG. 10C); legend of FIG. 10C; Hill fit, three repeats
Experimental: as §1
as §2, with “A flipped assay, using HIS-tagged Gli2 on the sensor and a range of Kif7 concentrations in buffer, was also conducted.” left out

[10] = target: B1; test: BLI, Hill fit
Experimental: as §1, with “(Kd). […] GFP-tagged versions of proteins show a consistent increase in Kd that is within error range.” for “(Kd).”
as §2, with “A flipped assay, using HIS-tagged Gli2 on the sensor and a range of Kif7 concentrations in buffer, was also conducted.” left out

[11] = target: T5, Gli2-ZF-GFP (human, UniProt P10070 418-604); test: BLI, Hill fit
T5 construct: HRV-cleavable N-terminal 6xHis tag in the vector; not shown: C-terminal GFP tag
T5 sequence (looked up): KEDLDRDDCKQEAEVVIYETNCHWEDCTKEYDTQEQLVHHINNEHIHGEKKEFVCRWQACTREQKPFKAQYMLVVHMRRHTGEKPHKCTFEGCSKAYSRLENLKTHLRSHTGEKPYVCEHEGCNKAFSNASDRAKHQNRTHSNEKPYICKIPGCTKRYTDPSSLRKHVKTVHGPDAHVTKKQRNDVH
Experimental: as §1, with “(Kd). […] GFP-tagged versions of proteins show a consistent increase in Kd that is within error range.” for “(Kd).”
as §2, with “A flipped assay, using HIS-tagged Gli2 on the sensor and a range of Kif7 concentrations in buffer, was also conducted.” left out

**Q.** How did the “Kif7 fluorescence intensity on microtubules (TIRF)” value [1] turn out when B1 was run?
**A.** > 5 fold

**Q.** What about the Kd [2] of the same binder?
**A.** 217 nM

**Q.** And the Kd [3]?
**A.** 397 nM

**Q.** What about the Kd [4] of the same binder?
**A.** 213 nM

**Q.** What about the “EC50 (read off the curve)” value [5] of the same binder?
**A.** ~200 nM

B2: Gli2 ZF1-3 (other, human, UniProt P10070 418-530, looked up)
chain: KEDLDRDDCKQEAEVVIYETNCHWEDCTKEYDTQEQLVHHINNEHIHGEKKEFVCRWQACTREQKPFKAQYMLVVHMRRHTGEKPHKCTFEGCSKAYSRLENLKTHLRSHTGE
notes: domain: zinc-fingers 1-3
**Q.** For B2, which Kd [6] is on record?
**A.** 160 nM

**Q.** B3 was tested. Which Kd [7] did it give?
**A.** 101 nM

**Q.** And the Kd [8]?
**A.** 48 nM

**Q.** And the Kd [9]?
**A.** 103 nM

B4: GST-Kif7-CC-GFP (other)
chain: PDSGIESASVEDQAAQGAGGRKEDEGAQQLLTLQNQVARLEEENRDFLAALEDAMEQYKLQSDRLREQQEEMVELRLRLELVRPGWGGPRLLNGLPPGSFVPRPHTAPLGGAHAHVLGMVPPACLPGDEVGSEQRGEQVTN
notes: also called GST-tagged Kif7-CC-GFP; not shown: N-terminal GST tag; GFP tag, C-terminal by the name
**Q.** Which results are given for B4?
**A.** Kd [10]: 65 nM; Kd [11]: 57 nM
